Numbering of substitutions follows the chain as printed. Names may count otherwise. One block for each binder: values may come before it.
Assays:
[1] = target: T1, human PD-L1 (human, UniProt Q9NZQ7 19-290); experiment: FACS, CHO-K1/hPD-L1 cells
T1 construct: whole, on cells; also called hPD-L1; CD274
Procedure: (§1) Specifically, the cells expressing PD-L1 were digested and resuspended in PBS buffer containing 2% BSA. The cells were adjusted to a cell density of 1×10⁶ cells/mL, respectively. The cells were seeded in a 96-well V-bottom plate (Corning, #3894) at 100 μL/well, and the antibody to be tested at 2×final concentration with 4-fold concentration gradient dilution was then added at 100 μL/well. The cells were incubated at 4° C. for 2 hours in the dark. After the incubation, the cells were rinsed twice by adding pre-chilled PBS containing 2% BSA at 100 μL/well, and centrifuged at 500 g at 4° C. for 5 minutes, and the supernatant was discarded. […] The cells were washed twice by adding pre-chilled PBS containing 2% BSA at 100 µL/well, and centrifuged at 500 g at 4° C. for 5 minutes, and the supernatant was discarded. Finally, the cells were resuspended in pre-chilled PBS buffer containing 2% BSA at 200 μL/well. The fluorescence signal values were read using a BD FACS CANTOII flow cytometer or ACEA NovoCyte flow cytometer, and the data were processed and analyzed using FlowJo v10 software (FlowJo, LLC).

[2] = target: T1, human PD-L1; experiment: FACS, NCI-H226 cells
Procedure: as §1

[3] = target: T2, human CD40 (human, UniProt P25942 21-277); experiment: FACS, Raji cells
T2 construct: whole, on cells; also called hCD40; TNFRSF5
Procedure: (§2) The cells were incubated at 4° C. for 1 hours in the dark. After the incubation, the cells were rinsed twice by adding pre-chilled PBS at 100 μL/well, and centrifuged at 500 g at 4° C. for 5 minutes, and the supernatant was discarded. Then, a fluorescent secondary antibody (goat anti-human IgG (H+L) secondary antibody, Alexa Fluor® 488 conjugate, Invitrogen, #A11013, 1:1000 dilution) was added at 100 μL/well, and the cells were incubated at 4° C. for 30 minutes in the dark. The cells were washed twice with pre-chilled PBS at 200 μL/well, and centrifuged at 500 g at 4° C. for 5 minutes, and the supernatant was discarded. Finally, the cells were resuspended in pre-chilled PBS at 200 μL/well. The fluorescence signal values were read using a BD FACS CANTOII flow cytometer or ACEA NovoCyte flow cytometer, and the data were processed and analyzed using FlowJo v10 software (FlowJo, LLC).

[4] = target: T2, human CD40; experiment: FACS, CHO-K1/hCD40 cells
Procedure: as §2

[5] = target: T3, cynomolgus monkey PD-L1 (cynomolgus monkey); experiment: FACS, CHO-K1/cyPD-L1 cells
T3 construct: whole, on cells; also called cyPD-L1
Procedure: as §1

[6] = target: T4, cynomolgus monkey CD40 (cynomolgus monkey); experiment: FACS, CHO-K1/cyCD40 cells
T4 construct: whole, on cells; also called cyCD40
Procedure: as §2

[7] = target: T1, human PD-L1; experiment: cell-based or functional assay

T2 sequence (P25942 21-277): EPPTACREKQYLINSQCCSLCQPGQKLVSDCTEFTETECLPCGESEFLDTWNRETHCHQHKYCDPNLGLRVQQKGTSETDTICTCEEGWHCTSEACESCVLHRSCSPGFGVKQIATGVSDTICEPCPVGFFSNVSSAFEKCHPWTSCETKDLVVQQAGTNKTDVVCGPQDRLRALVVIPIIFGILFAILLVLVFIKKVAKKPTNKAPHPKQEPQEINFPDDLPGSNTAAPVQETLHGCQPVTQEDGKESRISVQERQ
T1 sequence (Q9NZQ7 19-290): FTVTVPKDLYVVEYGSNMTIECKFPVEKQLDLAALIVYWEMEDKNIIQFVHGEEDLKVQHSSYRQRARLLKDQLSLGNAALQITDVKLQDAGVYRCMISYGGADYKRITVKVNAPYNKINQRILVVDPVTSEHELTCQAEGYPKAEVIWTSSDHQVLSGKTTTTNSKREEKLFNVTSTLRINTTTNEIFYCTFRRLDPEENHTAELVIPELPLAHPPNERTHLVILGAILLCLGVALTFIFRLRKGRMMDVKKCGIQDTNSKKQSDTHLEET

B1: PR007616 (bispecific antibody, human IgG1, kappa)
heavy: QVQLVESGGGVVQPGMSLRLSCAASGFDFSSYGMYWVRQAPGKGQEWVASIRYTGTEKHYADSVKGRFTISRDNSKNTLYLEMNSLRVEDTAVYYCAKNRALFGVIPDDSDIRGQGTMVTVSSGGGGSQVQLVQSGAEVKKPGASVKVSCKASGYTFAGYYMYWVRQAPGQGLEWMGWINPDSGAPTYAQKFQGRVTMTRDTSISTAYMELSRLRSDDTAVYYCAREKIYYGSGNYYPSFDYWGQGTLVTVSSASTKGPSVFPLAPSSKSTSGGTAALGCLVKDYFPEPVTVSWNSGALTSGVHTFPAVLQSSGLYSLSSVVTVPSSSLGTQTYICNVNHKPSNTKVDKKVEPKSCDKTHTCPPCPAPEAAGAPSVFLFPPKPKDTLMISRTPEVTCVVVDVSHEDPEVKFNWYVDGVEVHNAKTKPREEQYNSTYRVVSVLTVLHQDWLNGKEYKCKVSNKALPAPIEKTISKAKGQPREPQVYTLPPSREEMTKNQVSLTCLVKGFYPSDIAVEWESNGQPENNYKTTPPVLDSDGSFFLYSKLTVDKSRWQQGNVFSCSVMHEALHNHYTQKSLSLSPGK
light: DIQLTQSPSFLSASVGDRVTITCRASQGISSYLAWYQQKPGKAPKLLIYAASTLQSGVPSRFSGSGSGTEFTLTISSLQPEDFATYYCQQLYSYPWTFGQGTKVEIKRTVAAPSVFIFPPSDEQLKSGTASVVCLLNNFYPREAKVQWKVDNALQSGNSQESVTEQDSKDSTYSLSSTLTLSKADYEKHKVYACEVTHQGLSSPVTKSFNRGEC
notes: VH of PR006248 (PD-L1) - GS_5 - heavy chain of CD40 IgG PR006497; human IgG1 L234A/L235A/G237A; also called PD-L1×CD40
- EC50 [1]: 1.07 nM
- Maximum MFI [1]: 20300 MFI
- EC50 [2]: 0.303 nM
- Maximum MFI [2]: 800 MFI
- EC50 [3]: 1.24 nM
- Maximum MFI [3]: 6680 MFI
- EC50 [4]: 1.99 nM
- Maximum MFI [4]: 19200 MFI
- EC50 [5]: 0.687 nM
- Maximum MFI [5]: 4750 MFI
- EC50 [6]: 2.22 nM
- Maximum MFI [6]: 64700 MFI
- EC50, Jurkat-NFAT-hPD1 reporter [7]: 0.204 nM
- Maximum (RLU), Jurkat-NFAT-hPD1 reporter [7]: 2590 RLU

B3: PR007620 (bispecific antibody, human IgG1, kappa)
heavy: QVQLVESGGGVVQPGMSLRLSCAASGFDFSSYGMYWVRQAPGKGQEWVASIRYTGTEKHYADSVKGRFTISRDNSKNTLYLEMNSLRVEDTAVYYCAKNRALFGVIPDDSDIRGQGTMVTVSSGGSQVQLVQSGAEVKKPGASVKVSCKASGYTFAGYYMYWVRQAPGQGLEWMGWINPDSGAPTYAQKFQGRVTMTRDTSISTAYMELSRLRSDDTAVYYCAREKIYYGSGNYYPSFDYWGQGTLVTVSSASTKGPSVFPLAPSSKSTSGGTAALGCLVKDYFPEPVTVSWNSGALTSGVHTFPAVLQSSGLYSLSSVVTVPSSSLGTQTYICNVNHKPSNTKVDKKVEPKSCDKTHTCPPCPAPEAAGAPSVFLFPPKPKDTLMISRTPEVTCVVVDVSHEDPEVKFNWYVDGVEVHNAKTKPREEQYNSTYRVVSVLTVLHQDWLNGKEYKCKVSNKALPAPIEKTISKAKGQPREPQVYTLPPSREEMTKNQVSLTCLVKGFYPSDIAVEWESNGQPENNYKTTPPVLDSDGSFFLYSKLTVDKSRWQQGNVFSCSVMHEALHNHYTQKSLSLSPGK
light: B1 light with Y92V
notes: VH of PR006248 (PD-L1) - GS_3 - heavy chain of CD40 IgG PR006504; human IgG1 L234A/L235A/G237A; also called PD-L1×CD40
- EC50 [1]: 1.15 nM
- Maximum MFI [1]: 20300 MFI
- EC50 [2]: 0.281 nM
- Maximum MFI [2]: 1030 MFI
- EC50 [3]: 1.32 nM
- Maximum MFI [3]: 6710 MFI
- EC50 [4]: 2.2 nM
- Maximum MFI [4]: 15300 MFI
- EC50 [5]: 0.757 nM
- Maximum MFI [5]: 4840 MFI
- EC50 [6]: 2.48 nM
- Maximum MFI [6]: 68000 MFI
- EC50, Jurkat-NFAT-hPD1 reporter [7]: 0.319 nM
- Maximum (RLU), Jurkat-NFAT-hPD1 reporter [7]: 3740 RLU

Continued by falling EC50 [1], values first:

- EC50 [1]: 1.58 nM
- Maximum MFI [1]: 20200 MFI
- EC50 [2]: 1.02 nM
- Maximum MFI [2]: 1020 MFI
- EC50 [3]: 1.65 nM
- Maximum MFI [3]: 7700 MFI
- EC50 [4]: 3.83 nM
- Maximum MFI [4]: 15000 MFI
- EC50 [5]: 1.02 nM
- Maximum MFI [5]: 4830 MFI
- EC50 [6]: 2.65 nM
- Maximum MFI [6]: 50100 MFI
- EC50, Jurkat-NFAT-hPD1 reporter [7]: 0.295 nM
- Maximum (RLU), Jurkat-NFAT-hPD1 reporter [7]: 2560 RLU
B2: PR007280 (bispecific antibody, human IgG1, kappa)
heavy: B1 heavy with L102I, I106V, D109A
light: B1 light with Y92V
notes: VH of PR006245 (PD-L1) - GS_5 - heavy chain of CD40 IgG PR006504; human IgG1 L234A/L235A/G237A; also called PD-L1×CD40

- EC50 [1]: 1.46 nM
- Maximum MFI [1]: 20400 MFI
- EC50 [2]: 0.61 nM
- Maximum MFI [2]: 983 MFI
- EC50 [3]: 1.45 nM
- Maximum MFI [3]: 7520 MFI
- EC50 [4]: 1.88 nM
- Maximum MFI [4]: 13500 MFI
- EC50 [5]: 0.834 nM
- Maximum MFI [5]: 4620 MFI
- EC50 [6]: 2.43 nM
- Maximum MFI [6]: 50100 MFI
- EC50, Jurkat-NFAT-hPD1 reporter [7]: 0.188 nM
- Maximum (RLU), Jurkat-NFAT-hPD1 reporter [7]: 2480 RLU
B5: PR007282 (bispecific antibody, human IgG1, kappa)
heavy: B1 heavy with D109A
light: B1 light with Y92V
notes: VH of PR006247 (PD-L1) - GS_5 - heavy chain of CD40 IgG PR006504; human IgG1 L234A/L235A/G237A; also called PD-L1×CD40

- EC50 [1]: 1.03 nM
- Maximum MFI [1]: 20100 MFI
- EC50 [2]: 0.452 nM
- Maximum MFI [2]: 861 MFI
- EC50 [3]: 1.28 nM
- Maximum MFI [3]: 6560 MFI
- EC50 [4]: 1.69 nM
- Maximum MFI [4]: 14600 MFI
- EC50 [5]: 0.683 nM
- Maximum MFI [5]: 4720 MFI
- EC50 [6]: 2.58 nM
- Maximum MFI [6]: 55500 MFI
- EC50, Jurkat-NFAT-hPD1 reporter [7]: 0.225 nM
- Maximum (RLU), Jurkat-NFAT-hPD1 reporter [7]: 4080 RLU
B4: PR007556 (bispecific antibody, human IgG1, kappa)
heavy: B1 heavy
light: B1 light with Y92F
notes: VH of PR006248 (PD-L1) - GS_5 - heavy chain of CD40 IgG PR006496; human IgG1 L234A/L235A/G237A; also called PD-L1×CD40
